Values joined by “and” are separate entries in the source; they are usually repeats but may differ in a detail not shown here. Identical values can stand only once. Like-named read-outs stand apart in the source and are kept apart here.
Assays:
[1] = biological target: human vascular endothelial growth factor A (VEGF-A) (human) (UniProt P15692)
[2] = biological target: human epidermal growth factor receptor 2 (HER2) extracellular domain (human) (UniProt P04626); assay: SPR
[3] = biological target: human vascular endothelial growth factor A (VEGF-A) (human) (UniProt P15692); assay: SPR
[4] = biological target: human epidermal growth factor receptor 2 (HER2) extracellular domain (human) (UniProt P04626); assay: not stated (FIG. 6A)
[5] = biological target: human vascular endothelial growth factor A (VEGF-A) (human) (UniProt P15692); assay: not stated (FIG. 6A)
[6] = biological target: human vascular endothelial growth factor A (VEGF-A) (human) (UniProt P15692); assay: SPR, table row 15
[7] = biological target: human vascular endothelial growth factor A (VEGF-A) (human) (UniProt P15692); assay: SPR, table row 17
[8] = biological target: human vascular endothelial growth factor A (VEGF-A) (human) (UniProt P15692); assay: SPR, table row 18
[9] = biological target: human epidermal growth factor receptor 2 (HER2) extracellular domain (human) (UniProt P04626); assay: SPR, table row 12
[10] = biological target: human vascular endothelial growth factor A (VEGF-A) (human) (UniProt P15692); assay: SPR, table row 12
[11] = biological target: human epidermal growth factor receptor 2 (HER2) extracellular domain (human) (UniProt P04626); assay: SPR, table row 20
[12] = biological target: human vascular endothelial growth factor A (VEGF-A) (human) (UniProt P15692); assay: SPR, table row 20

Chain of human vascular endothelial growth factor A (VEGF-A) (human) (P15692 220-313 limits assumed): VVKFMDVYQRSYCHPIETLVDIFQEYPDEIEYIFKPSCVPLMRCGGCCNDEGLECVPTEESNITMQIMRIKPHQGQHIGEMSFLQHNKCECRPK

Trastuzumab bH1 (antibody)
Kd [1]: 24.8 nM and 26.2 nM and 31.1 nM | koff [1]: 0.00027 s⁻¹ and 0.000282 s⁻¹ and 0.000342 s⁻¹ | kon [1]: 10900 M⁻¹ s⁻¹ and 10800 M⁻¹ s⁻¹ and 11000 M⁻¹ s⁻¹ | Kd [2]: 32.9 nM | Kd [3]: 23.5 nM | Kd [4]: 26 nM | Kd [5]: 300 nM | Kd [6]: 21.8 nM | koff [6]: 0.000254 s⁻¹ | kon [6]: 11700 M⁻¹ s⁻¹ | Kd [7]: 22.7 nM | koff [7]: 0.00028 s⁻¹ | kon [7]: 12300 M⁻¹ s⁻¹ | Kd [8]: 23.2 nM | koff [8]: 0.00025 s⁻¹ | kon [8]: 10800 M⁻¹ s⁻¹ | Kd [9]: 3.22 nM | koff [9]: 6.2e-05 s⁻¹ | kon [9]: 19300 M⁻¹ s⁻¹ | Kd [10]: 18.4 nM | koff [10]: 0.000211 s⁻¹ | kon [10]: 11500 M⁻¹ s⁻¹ | Kd [11]: 10.3 nM | koff [11]: 9.72e-05 s⁻¹ | kon [11]: 9470 M⁻¹ s⁻¹ | Kd [12]: 24.2 nM | koff [12]: 0.00026 s⁻¹ | kon [12]: 10800 M⁻¹ s⁻¹

Reference: patent publication US20250218531A1
